Measurements published in the nanobody polyreactivity screen of Harvey et al. (2022).

Test: yeast display, Sf9 membrane polyspecificity reagent, FACS + sequencing; frameworks hold sequencing errors
How it was run: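 Galactose-induced (36–48 hours) yeast carrying a synthetic nanobody display library were exposed to 10% biotinylated, detergent-solubilized Sf9 membrane reagent at 4 °C for 1 hour. FACS followed streptavidin microbead enrichment, using low and high (top ~1%) gates for expression (anti-HA) and reagent binding (streptavidin). Colony PCR, MiSeq 2 × 250 sequencing and CDR-length filtering followed. Labels for polyreactivity reflect the gate of origin.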

Sequence | polyreactivity (PSR sort gate)
QVQLEESGGGLVQAGGSLRLSCAASGRTFSSYAMVWYRQAPGKERELVAAINSGGSTNYADSVKGRFTISRDNAKNTVYLQMNSLKPEDTAVYYCNAVTFWGLGYDYWGQGTQVTVSS | low polyreactivity
QVQLVESGGGLVQAGGSLRLICAASGSIQDWNAMGWYRQAPGKERELVAAITNGVSTHYADSVKGRFTISRDNAKNTVYLQMNSLKPEDTAVYYCAKAFWWRPEWWLRSARGSWGLGTQVTVSS | low polyreactivity
QVQLVESGGGLDQARGSLRLSCAASGSILRYYTMGWYRQAHGKERELVAAISYRGSSTYYADSVKGRFTISRDNAKNTVYLQMNSLKPEDTAVYYCARGGYYGYDYWGQGTQVTLSS | high polyreactivity
QVQLVESGGGLVQAGGSLGLSCAASGNMFGRYAMGWYRQAPGKEREYVATITYSGGSTYYADSVKGPFTISRDNAKNTVYLQMNSLKQEDTAVYYCAARVGRPTLVAAKYDYWGQGTQVTVSS | high polyreactivity
QVQLVESGGGLVQAGGSLRLSCAASGSIFFLYTMGWYRQARGKERELVAAITRNGGSTYYADSVKGRFTISRDNAKNTVYLQMNSLKPEDTAVYYCNALRWYSYNYWGQGTQVTVSS | high polyreactivity
QVQLVESGRGLVQAGGSLRLSCAASGRIFDRNAMGWYRDAPGKERELVAAIDDSVGDTSYADSVKGRFTISRDNAKNTVYLQMNSLKPEDTSVFYCNAGYADFVTYPRYYYWGQGTQVTVSS | low polyreactivity
QVQLVESGGGLVQAGGSLRLSCAASGSIYIYYAMGWYRQAPVKERELVADITFSAGSNTYYADSVKGRFTISRDNAKNTVYLQMNSLKPEDTAVYYCNADRGFFGSITEYDYWGQGTQVTVSS | low polyreactivity
QVQLVESGGGLVQAGGSLRLSCAASGGTFGTNTMGWYRPAHGKERELVAAISKRGGRTYYADSVKGRFTISRDNAKITVYLQMNSLKPEDTAVYYCAADTGGNPKYDYWGQGTQVTVSS | high polyreactivity
QVQLVESGGGLVQAGGSLRLSCAASGLTFRYYAMGWYRQAPGKEREWVASITSRGTSTYYADSVKGRFTISRDNAKNTVYLQMNSLKPEDTAVYYCAKPVGTVGYDYWGQGTQVTVSS | high polyreactivity
QVQLVESGGGLVQAGGSLRLSCAASGIIFYWYAMGWYRQSPGKERELVATITSTGGSTNYADSVKGRFTISRDNAKNTVYLQMNSLKPEDTAVYYCNADRYGIYYYSRLPFDYWGQGTQVTVSS | low polyreactivity
QVQLVESGGGLVQAGGSLRLSCAASGSTFKYYAMGWYRQAPGKERELVASITSGGSTYYADSVKGRFTISRDNAKNTVYLQMNSLKPEDTAVYYCNKRWITSYYTRYDYWGQGTQVTVSS | high polyreactivity
QVQLVESGGGLVQAGGSLLLSCAASGFTFRYYAMGWYRQAPGKERELVAAITGSGTRTYYADSVKGRFTISRDYGKNTVYLQMNSLKPEDPAVYYCNAPRQPRWFDYWGQGTQVTVSS | high polyreactivity
QVQLVESGGGLVQAGGSHRLSCAASGSTFTTNAMGWYRQAPGKERELVAAISRRGGSTYYADSVKGRFTISRDNAKNTVYLQMNSLKPEDTAVYYCNAVRAEYEFDYWGQGTQVTVSS | high polyreactivity
QVQLVESGGGLVQAGGSLRLSCAASGSIFVTYAMGWYRQAPGKERDLVATITNVGRTNYADSVKGRFTISRDNAKNTVYLQMNSLKPEDTAVYYCNADGAPGYPGAYDYWGQGTQVTVSS | low polyreactivity
QVQLVESGGGLVQAGGSLRLTCAASGRTFWTNAMGWYRQAPGKVRELVAAIRNSGGRTYYADSVKGRFTISRDNAKNTVYLQMNSLKPEDTAVYYCNADFWYSYGYDYWGQGTQVTVSS | low polyreactivity
QVQLVESGGGLVQAGGSLRLSCAASGSIFAYYAMGWYRQAPGKERELVARITYSTDGTYYADSVKGRFTISRDNAKNTVYLQMNSLKPEDTAVYYCAVDTWWGFKRYKFDYWGQGTQVTVSS | low polyreactivity
QVQLVESGGGLVQAGGSLRLSCAASGFIFRGYAMGWYRQAPGKERELVAAITSSGGDTYYADSVKGRFTISRDNAKNTVYLQMNSLKPEDTAVYYCNARVYASGTEGDYWGQGTQVTVSS | low polyreactivity
QVQLVESGGGLVQAGGSLRLSCAASGITFVDNAMGWYRQAPGKERELVAVISSSGGSTYYADSVKGRFTISRDNAKNTVYLQMNSLKPEDTAVYYCAARNRFYRRPYDYWGQGTQVTVSS | high polyreactivity
QVQLVESGGGLVQAGGSLRLSCADSGFTFATYAMGWYRQAPGKKGRLVAAISNAGSTKYADSVKGRFTISRDNAKNTFYLQLNSLKPEDTAVYYCAASTLYASYYYLYYYWGQGTQVTVSS | high polyreactivity
QVQIVETGGGLVQAGGSLRISCAASGSTLIRNVMGWYRQAPGKERELVAAINTRGTTTYYADSVKGRFTISRDNAKNTVYLQMNSLKPEDTAVYYCAAYAYSAYSPDGQRSRYYYWGLGTQVTVSS | high polyreactivity
QVQLVESGGGLVQAGGSLRLSCAASGFIFSRNAMGWYRQAPGNERDLVAAISLRGGSTYYTDSVKGRFTISRDNAKNTVYLQMISLKPEDTAVYYCAAVSGRYLTRDGYWGQGTQVTVSS | high polyreactivity
QVQLVESGGGLVQAGGSLRITCAASGSTFATYTIGWYRQPPGKEMELVAAISVSGSRTYADSVKGRFTISRDNAKNSVYLQMNSLKPEDTAVYYCAPRNYSVASYGEYDYWGQGTQVTVSS | high polyreactivity

Sequence | polyreactivity (PSR sort gate)
QVQLVETGGGLVQAGGSLRLSCAASGSTFESYAMGWYRQAPGKERELVASISRCGGTTFYADSVKVRFTISRDNAKNTVYLQMNSLKPEDTEVYYCAAKRRRLGGDYWGQGTQVTVSS | high polyreactivity
QVQLVESGGGLVQAGGSLRLSCAASGSTFRQYAMGWSRQAPGKERELVAAISSSGGSTYYADSVKGRFTISRDNAKNTVYLQMNSLKPEDTAGYYCNARLYGSASWGQPKEYDYWGQGTQVTVSS | low polyreactivity
QVQLVESGGGLVQAGGSLRLSCAASGSTFGRNAMGWYRQAPGKERELVAAITASGGTTYYADSVKGRFTISRDNAKNTVFLQMNSLKPEDTSVYYCARAGHFSFKYDYWGQGTQVTVSS | low polyreactivity
QVQLVESGGGLVKAGGSLRLSCAASGRIIEKYAMGWYRQAHGKEREFVAAIDWSGGSTYYADSVKGRFTISRDNAKNTVSLQKNSLKPEDTAVYYCAAYWYYEDGQSEARLYGYDYWGQGTQVTVSS | low polyreactivity
QVQLVESGGGLVQAGGSLRLSCAASGSIFRVYMGWYRQAPGKERELVATIRWSSGSTYYADSVKGRFTISRDNAKNTVYLQMNSLKPEDTAVYYCAVKGPYYDDYDYWGQGTQVTVSS | low polyreactivity
QVQLVESGGGLVQAGGSLRLSCAASGRTFGYNGMGWYRQAPGKEREFVAAITWSGGRTYYADSVKGRFTISRDKAKNTVYLQMNSLKPEDTAVYYCAAGKYRYTYYALEYDYWGQGTQVTVSS | low polyreactivity
QVQLVESGGGLVQAGGSLRLSCAASGRIFNIYAMGWYRQAPGKERELVAAIRWNGGSTYYADSVKGRFTISRDNAKNTVYLQMNSLKPEDTAVYYCAARHPLYRVQHEYWGQGTQVTVSS | low polyreactivity
QVQLVESGGGLVQAGGSLRLSCAASGITLYWYAMGWYRQAPGKERELVAAISRRGGTTYYADSVKGRFTISRDNAKNTVYLQMNSLKPEDTAVYYCAKAPDTQTSWSRQEGNYWGQGTQVTVSS | low polyreactivity
QVQLVESGGGLVQAGGSLRLSCAASGSIFIYNAMGWYRQAPGKERELVAAISSSGGSTYYADSVKGRFTISRDNAKNTVYLQMNSLKPEDTAVYYCAARTYYVRGLGGRTGMDYWGQGTQVTVSS | low polyreactivity
QVQLVESGGGLVQAGGSLRLSCAATGFTFTGNAMGWYRQAPGKQRELVAAINTGTGGSTYYADSVKGRFTISRDNAKNTVYLQMNSLKPVDTAVYYPIGVGGDYDYWGQGTQVTVSS | low polyreactivity
QVQLVESGGGLVQAGGSLRLSCAASGSIFGVYTMGWYRQAPGKERELVAAITSAGSTYADSVKGRFTISRDKAKNTVYLQMNSLKPEDTAVYYCNAQSVLLSLRVELREPHEYWGQGTQVTVSS | low polyreactivity
QVQIVESGGGLVQAGGSLRLSCAASGYPFCRNAMGCYRQAPGKERELVAAISRSAGSTNYADSVKGRFTISRDNAMYTVYFQMNSLKPEDTAVYYGAADRYYRDPYWGNYWGQGTQVTVSS | high polyreactivity
QVQLVESGGGLVHAGGCLRLSCAASGRNFYYYTMGWSRQEPGKERELVASISRSGDRTYYADSVKGRFTISRDYAKNTVYLQMNSLKPEDTAVYYCNAQKYPRYSRTSGRNYFFWGQGTQVTVSS | high polyreactivity
QVQLVESGGGLDQAGGSHRLSCAASGRIFYIYTMGWYRQPPGKEREFVAGINWNGGSTYYADSVKGRFTISRDNAKNTVYLQMNSLKPEVTAVYYCNADQYWDRYYYWGQGTQVTVSS | low polyreactivity
QLQLVESGGGLVQAGGSLRLSCAASGSIFKPYALRCYIQAPGKERELVAAITRSGGSTYYADSVKGRFTISRDNAKNTVYLQMNSLKPEDTAVYYCAAGNAPYYRFGSKKYGYWGQGTQVTVSS | high polyreactivity
QVQLVESGGGLVQAGGSLRLSCAASGSTFRYNAMGWYRQAPGKERELVAAITSGGGTNYADSVKGRFTISRDNAKNTVYLQMKSLKPEDTAVYYCAAPWGLGSELLKRDYWGQGTQVTVSS | low polyreactivity
QVHLVDSCGALVQAGGSLSIRCAASGLTIYRYAKGWNRQEPRKETEVVAAISSADRTYYADSVKGRFTISRDNAKNTVYLQMNSLKPEDTAVYYCAARANYFGWTKSYYYWGQGTQVTVSS | high polyreactivity
QVQLVESGGGLVQAGGSVRLSCAASGRIFRYYMGWYRQAPGKEREFVAAITTRGGRTYYADSVKGRFTISRDNAKNTVSLQMNSLKPEDTAVYYCAAGYNGAIIALRAYDYWGQGTQVTVSS | high polyreactivity
HVPLVESGGGLVQAGGSLRLSCAASGSTFSVNVLGWYRLAAGKERELVAAITQAGGSTYYADSVKGRFSISRDTAKNTVYLQMNSLKPEDTAGYYCAVEKWSVYSFFLEGADYWGQGTQLTVSS | low polyreactivity
QVQLVESGGGLVQAGGSLRLSCAASGFIIGWYVMGWYRQAPGKERELVAAITWDSTSTYYADSVKGRFTISRDNAKNTVYLQMNSLKPEDTAVYYCAADRLDRYYYWGEGTQVTVSS | low polyreactivity
QVQLVESAGGLVQAGGSLRLSCAASGNTFYPYAMGWYRQAPGKERELVAAITSVGRTYYADSVKGRFTITRDNAKNTVYLQMNSLKPEDTAVYYCAAVVYYRGYTYNYWGQGTQVTVSS | high polyreactivity
